Source: patent US20250276070A1 (HOSPITAL FOR SICK CHILDREN, published 2025)

Assays:
T-01 MB IgG1 K288A = test: BLI, His-tagged receptor on Ni-NTA;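 note: octet RED96 biolayer interferometry of Fc-mutant Multabodies binding human FcγRI, FcγRIIa or FcγRIIb, with the His-tagged receptors captured on Ni-NTA biosensors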
Description: (§1) The binding kinetics and affinity to Fc receptors—human Fcγ receptor I (hFcγRI), hFcγRIIa, and hFcγRIIb—of Multabodies comprising different Fc mutations were determined by biolayer interferometry (BLI) using an Octet RED96 BLI system (Pall ForteBio).
(§2) Briefly, His-tagged Fc receptors were loaded onto Ni-NTA biosensors to reach a signal response of 0.8 nm.

T-01 MB.v2 IgG1 WT = target: T1, T-01 MB.v2 IgG1 WT; test: BLI, His-tagged receptor on Ni-NTA;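 note: octet RED96 biolayer interferometry of Fc-mutant Multabodies binding human FcγRI, FcγRIIa or FcγRIIb, with the His-tagged receptors captured on Ni-NTA biosensors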
T1 construct: also called Multabody v2
Description: as §1, §2

[1] = target: T2, T-01 MB IgG1 L234A L235A (LALA); test: BLI, His-tagged receptor on Ni-NTA;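 note: octet RED96 biolayer interferometry of Fc-mutant Multabodies binding human FcγRI, FcγRIIa or FcγRIIb, with the His-tagged receptors captured on Ni-NTA biosensors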
T2 construct: also called T-01 MB IgG1 LALA
Description: as §1, §2

T-01 MB IgG1 I253V = test: BLI, His-tagged receptor on Ni-NTA;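 note: octet RED96 biolayer interferometry of Fc-mutant Multabodies binding human FcγRI, FcγRIIa or FcγRIIb, with the His-tagged receptors captured on Ni-NTA biosensors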
Description: as §1, §2

T-01 MB IgG1 LALAP K288A = target: T3, T-01 MB IgG1 LALAP K288A; test: BLI, His-tagged receptor on Ni-NTA
T3 construct: also called K288A+LALAP
Description: as §1, §2

T-01 MB IgG1 P329G = test: BLI, His-tagged receptor on Ni-NTA
Description: as §1, §2

[2] = target: T-01 MB IgG1 LALA P329G (LALAP); test: BLI, His-tagged receptor on Ni-NTA
Description: as §1, §2

T-01 MB IgG1 WT = target: T4, T-01 MB IgG1 WT; test: BLI, His-tagged receptor on Ni-NTA
T4 construct: also called T-01 MB with wild-type IgG1 Fc
Description: as §1, §2

T-01 MB IgG1 I253A = test: BLI, His-tagged receptor on Ni-NTA
Description: as §1, §2

T-01 MB IgG4 WT = test: BLI, His-tagged receptor on Ni-NTA
Description: as §1, §2

T-01 MB IgG2 K288A P329G = test: BLI, His-tagged receptor on Ni-NTA
Description: as §1, §2

T-01 MB IgG2 WT = test: BLI, His-tagged receptor on Ni-NTA
Description: as §1, §2

[3] = target: T5, T-01 MB.v2 IgG1 M428L N434S (LS); test: BLI, His-tagged receptor on Ni-NTA
T5 construct: also called T-01 MB.v2 IgG1 LS
Description: as §1, §2

T-01 MB IgG1 LALAP I253A = target: T6, T-01 MB IgG1 LALAP I253A; test: BLI, His-tagged receptor on Ni-NTA
T6 construct: also called I253A+LALAP
Description: as §1, §2

soluble CD4 = soluble CD4 (UniProt P01730 26-390); test: BLI, His-tagged target on Ni-NTA
BG5050 SOSIP.664 D368R = target: T7, BG5050 SOSIP.664 D368R (HIV-1); test: BLI, His-tagged target on Ni-NTA
T7 construct: also called BG505 SOSIP D368R; BG505 SOSIP.664_D368R trimer

B1: human Fcγ receptor I (hFcγRI) (receptor, UniProt P12314 16-288, looked up)
chain: QVDTTKAVITLQPPWVSVFQEETVTLHCEVLHLPGSSSTQWFLNGTATQTSTPSYRITSASVNDSGEYRCQRGLSGRSDPIQLEIHRGWLLLQVSSRVFTEGEPLALRCHAWKDKLVYNVLYYRNGKAFKFFHWNSNLTILKTNISHNGTYHCSGMGKHRYTSAGISVTVKELFPAPVLNASVTSPLLEGNLVTLSCETKLLLQRPGLQLYFSFYMGSKTLRGRNTSSEYQILTARREDSGLYWCEAATEDGNVLKRSPELELQVLGLQLPTP
T-01 MB IgG1 K288A
  Kd: < 0.001 nM
  koff: < 1e-07 s⁻¹
  kon: 578000 M⁻¹ s⁻¹
T-01 MB.v2 IgG1 WT
  Kd: < 0.001 nM
  koff: < 1e-07 s⁻¹
  kon: 312000 M⁻¹ s⁻¹
[1]
  Kd: 0.0297 nM
  koff: 1.66e-05 s⁻¹
  kon: 558000 M⁻¹ s⁻¹
T-01 MB IgG1 I253V
  Kd: < 0.001 nM
  koff: < 1e-07 s⁻¹
  kon: 756000 M⁻¹ s⁻¹
T-01 MB IgG1 LALAP K288A
  Kd: 0.269 nM
  koff: 0.000161 s⁻¹
  kon: 601000 M⁻¹ s⁻¹
T-01 MB IgG1 P329G
  Kd: 0.0375 nM
  koff: 2.49e-05 s⁻¹
  kon: 665000 M⁻¹ s⁻¹
[2]
  Kd: 0.684 nM
  koff: 0.000437 s⁻¹
  kon: 639000 M⁻¹ s⁻¹
T-01 MB IgG1 WT
  Kd: < 0.001 nM
  koff: < 1e-07 s⁻¹
  kon: 672000 M⁻¹ s⁻¹
T-01 MB IgG1 I253A
  Kd: < 0.001 nM
  koff: < 1e-07 s⁻¹
  kon: 605000 M⁻¹ s⁻¹
T-01 MB IgG4 WT
  Kd: < 0.001 nM
  koff: < 1e-07 s⁻¹
  kon: 835000 M⁻¹ s⁻¹
T-01 MB IgG2 K288A P329G
  Kd: 0.132 nM
  koff: 9.13e-05 s⁻¹
  kon: 694000 M⁻¹ s⁻¹
T-01 MB IgG2 WT
  Kd: 2.03 nM
  koff: 0.00154 s⁻¹
  kon: 758000 M⁻¹ s⁻¹
[3]
  Kd: < 0.001 nM
  koff: < 1e-07 s⁻¹
  kon: 431000 M⁻¹ s⁻¹
T-01 MB IgG1 LALAP I253A
  Kd: 0.768 nM
  koff: 0.000656 s⁻¹
  kon: 853000 M⁻¹ s⁻¹

B2: human FcγRIIb (hFcγRIIb) (receptor, UniProt P31994 43-217, looked up)
chain: TPAAPPKAVLKLEPQWINVLQEDSVTLTCRGTHSPESDSIQWFHNGNLIPTHTQPSYRFKANNNDSGEYTCQTGQTSLSDPVHLTVLSEWLVLQTPHLEFQEGETIVLRCHSWKDKPLVKVTFFQNGKSKKFSRSDPNFSIPQANHSHSGDYHCTGNIGYTLYSSKPVTITVQAP
T-01 MB IgG1 K288A
  Kd: < 0.001 nM
  koff: < 1e-07 s⁻¹
  kon: 1.25e+06 M⁻¹ s⁻¹
T-01 MB.v2 IgG1 WT
  binding result: no binding (tested: serial dilutions 20-0.65 nM)
[1]
  Kd: 0.607 nM
  koff: 0.000394 s⁻¹
  kon: 649000 M⁻¹ s⁻¹
T-01 MB IgG1 I253V
  Kd: < 0.001 nM
  koff: < 1e-07 s⁻¹
  kon: 1.39e+06 M⁻¹ s⁻¹
T-01 MB IgG1 LALAP K288A
  binding result: no binding (tested: serial dilutions 20-0.65 nM)
T-01 MB IgG1 P329G
  binding result: no binding (tested: serial dilutions 20-0.65 nM)
[2]
  binding result: no binding (tested: serial dilutions 20-0.65 nM)
T-01 MB IgG1 WT
  Kd: < 0.001 nM
  koff: < 1e-07 s⁻¹
  kon: 1.19e+06 M⁻¹ s⁻¹
T-01 MB IgG1 I253A
  Kd: < 0.001 nM
  koff: < 1e-07 s⁻¹
  kon: 1.39e+06 M⁻¹ s⁻¹
T-01 MB IgG4 WT
  Kd: 0.223 nM
  koff: 0.000305 s⁻¹
  kon: 1.37e+06 M⁻¹ s⁻¹
T-01 MB IgG2 K288A P329G
  binding result: no binding (tested: serial dilutions 20-0.65 nM)
T-01 MB IgG2 WT
  Kd: 1.61 nM
  koff: 0.00103 s⁻¹
  kon: 637000 M⁻¹ s⁻¹
[3]
  binding result: no binding (tested: serial dilutions 20-0.65 nM)
T-01 MB IgG1 LALAP I253A
  binding result: no binding (tested: serial dilutions 20-0.65 nM)

B3: human FcγRIIa (hFcγRIIa) (receptor, UniProt P12318 34-217, looked up)
chain: QAAAPPKAVLKLEPPWINVLQEDSVTLTCQGARSPESDSIQWFHNGNLIPTHTQPSYRFKANNNDSGEYTCQTGQTSLSDPVHLTVLSEWLVLQTPHLEFQEGETIMLRCHSWKDKPLVKVTFFQNGKSQKFSHLDPTFSIPQANHSHSGDYHCTGNIGYTLFSSKPVTITVQVPSMGSSSPMG
T-01 MB IgG1 K288A
  Kd: < 0.001 nM
  koff: < 1e-07 s⁻¹
  kon: 1.07e+06 M⁻¹ s⁻¹
T-01 MB.v2 IgG1 WT
  binding result: no binding (tested: serial dilutions 20-0.65 nM)
[1]
  Kd: 0.208 nM
  koff: 0.000121 s⁻¹
  kon: 581000 M⁻¹ s⁻¹
T-01 MB IgG1 I253V
  Kd: < 0.001 nM
  koff: < 1e-07 s⁻¹
  kon: 1.09e+06 M⁻¹ s⁻¹
T-01 MB IgG1 LALAP K288A
  binding result: no binding (tested: serial dilutions 20-0.65 nM)
T-01 MB IgG1 P329G
  Kd: 0.249 nM
  koff: 5.53e-05 s⁻¹
  kon: 222000 M⁻¹ s⁻¹
[2]
  binding result: no binding (tested: serial dilutions 20-0.65 nM)
T-01 MB IgG1 WT
  Kd: < 0.001 nM
  koff: < 1e-07 s⁻¹
  kon: 963000 M⁻¹ s⁻¹
T-01 MB IgG1 I253A
  Kd: < 0.001 nM
  koff: < 1e-07 s⁻¹
  kon: 763000 M⁻¹ s⁻¹
T-01 MB IgG4 WT
  Kd: 0.391 nM
  koff: 0.000445 s⁻¹
  kon: 1.14e+06 M⁻¹ s⁻¹
T-01 MB IgG2 K288A P329G
  binding result: no binding (tested: serial dilutions 20-0.65 nM)
T-01 MB IgG2 WT
  Kd: 0.606 nM
  koff: 0.000263 s⁻¹
  kon: 433000 M⁻¹ s⁻¹
[3]
  binding result: no binding (tested: serial dilutions 20-0.65 nM)
T-01 MB IgG1 LALAP I253A
  binding result: no binding (tested: serial dilutions 20-0.65 nM)

B4: 10E8v4 IgG1 (antibody, V domains shown)
VH: EVRLVESGGGLVKPGGSLRLSCSASGFDFDNAWMTWVRQPPGKGLEWVGRITGPGEGWSVDYAESVKGRFTISRDNTKNTLYLEMNNVRTEDTGYYFCARTGKYYDFWSGYPPGEEYFQDWGQGTLVIVSS
VL: SELTQDPAVSVALKQTVTITCRGDSLRSHYASWYQKKPGQAPVLLFYGKNNRPSGIPDRFSGSASGNRASLTITGAQAEDEADYYCSSRDKSGSRLSVFGGGTKLTVLS
Soluble CD4
  binding result: no binding

B5: N49P7 IgG1 (antibody, V domains shown)
VH: ADLVQSGAVVKKPGDSVRISCEAQGYRFPDYIIHWIRRAPGQGPEWMGWMNPMGGQVNIPWKFQGRVSMTRDTSIETAFLDLRGLKSDDTAVYYCVRDRSNGSGKRFESSNWFLDLWGRGTAVTIQS
VL: QSALTQPRSVSASPGQSVTISCTGTHNLVSWCQHQPGRAPKLLIYDFNKRPSGVPDRFSGSGSGGTASLTITGLQDDDDAEYFCWAYEAFGGGTKLTVLG
Soluble CD4
  binding result: no binding

B6: PGDM1400 IgG1 (antibody, V domains shown)
VH: QAQLVQSGPEVRKPGTSVKVSCKAPGNTLKTYDLHWVRSVPGQGLQWMGWISHEGDKKVIVERFKAKVTIDWDRSTNTAYLQLSGLTSGDTAVYYCAKGSKHRLRDYALYDDDGALNWAVDVDYLSNLEFWGQGTAVTVSS
VL: DFVLTQSPHSLSVTPGESASISCKSSHSLIHGDRNNYLAWYVQKPGRSPQLLIYLASSRASGVPDRFSGSGSDKDFTLKISRVETEDVGTYYCMQGRESPWTFGQGTKVDIKR
BG5050 SOSIP.664 D368R
  Kd: 38 nM
  koff: 0.000262 s⁻¹
  kon: 6900 M⁻¹ s⁻¹
Soluble CD4
  binding result: no binding
